# Measured values: paper PMC7714071, “Interaction of amyloid beta with humanin and acetylcholinesterase is modulated by ATP” (FEBS Open Bio, 2020)
# B1: acetylcholinesterase (protein)
# chain: EGREDAELLVTVRGGRLRGIRLKTPGGPVSAFLGIPFAEPPMGPRRFLPPEPKQPWSGVVDATTFQSVCYQYVDTLYPGFEGTEMWNPNRELSEDCLYLNVWTPYPRPTSPTPVLVWIYGGGFYSGASSLDVYDGRFLVQAERTVLVSMNYRVGAFGFLALPGSREAPGNVGLLDQRLALQWVQENVAAFGGDPTSVTLFGESAGAASVGMHLLSPPSRGLFHRAVLQSGAPNGPWATVGMGEARRRATQLAHLVGCPPGGTGGNDTELVACLRTRPAQVLVNHEWHVLPQESVFRFSFVPVVDGDFLSDTPEALINAGDFHGLQVLVGVVKDEGSYFLVYGAPGFSKDNESLISRAEFLAGVRVGVPQVSDLAAEAVVLHYTDWLHPEDPARLREALSDVVGDHNVVCPVAQLAGRLAAQGARVYAYVFEHRASTLSWPLWMGVPHGYEIEFIFGIPLDPSRNYTAEEKIFAQRLMRYWANFARTGDPNEPRDPKAPQWPPYTAGAQQYVSLDLRPLEVRRGLRAQACAFWNRFLPKLLSATDTLDEAERQWKAEFHRWSSYMVHWKNQFDHYSKQDRCSDL
# Key:
# A549 cells = assay: MTT cell viability, A549; assay type: cell-based, human; details: AChE-ID media, 48 h, A549; Fig. 7A
# Experimental: Human NSCLC cell lines, A549 (ATCC CCL‐185) and H1299 (ATCC CRL‐5803), were purchased from the American Type Culture Collection (ATCC, Manassas, VA, USA). Cells were seeded as we reported earlier in 5 mL HyClone Dulbecco's modified Eagle's medium/nutrient mixture F‐12 (DMEM/F12) (GE Healthcare Life Sciences, Pittsburgh, PA, USA), supplemented with 10% Fetalgro bovine growth serum (FBS; RMBIO, Missoula, MT, USA), 50 U·mL^−1 penicillin, and […] streptomycin (Invitrogen, Life Technologies, Carlsbad, CA, USA) in 25‐cm^2 tissue culture flasks, and allowed to grow overnight in an incubator at 37 °C, 95% humidity, and 5% CO2. The cells were counted after trypan blue staining, with a hemocytometer.
# The 3‐(4,5‐dimethylthiazol‐2‐yl)‐2,5‐diphenyl‐tetrazolium bromide (MTT) reduction assay (Sigma‐Aldrich), used to measure cell viability, was carried out as we reported earlier. […] The absorbance was measured at 570 nm in a plate reader. […]
# (§1) Conditioned media were immunodepleted (ID) according to the methods previously described and our recently published report. […] The ID media were then carefully removed and analyzed for the presence of the target protein or peptide by ELISA. The same amount of protein (3 µL of 600 µg·mL^−1 total protein) of each sample was analyzed in the experiments. […]
# [1] = test system: Aβ in H1299 cell-conditioned media; assay: ELISA, oligomer versus total Aβ in H1299 cell-conditioned media; assay type: cell-based, human; details: AChE-immunodepleted H1299 media; Fig. 8B
# Experimental: Aβ ELISAs were carried out according to previous protocols for determining the oligomeric and monomeric concentrations of Aβ and as we recently reported. Briefly, total Aβ (monomers + oligomers) was measured by two‐site binding ELISAs using the capture 6E10 monoclonal antibody and 4G8‐conjugated biotin as the detection antibody, which recognizes a distinct epitope, then quantitated using streptavidin‐HRP.
# Using the same samples, oligomerized Aβ was measured by a single‐site ELISA in which antibodies targeting the same primary sequence epitope were used for both capture (4G8) and detection (4G8‐biotin). Only oligomers are detected with this approach since the 4G8‐biotin antibody cannot bind to the captured monomer because the epitope is blocked by the 4G8 capture antibody. […]
# as §1
# Both epitopes recognized by the 6E10 and 4G8 antibodies have been previously shown to be exposed in Aβ aggregates. […] Fold change relative to controls using anti‐6E10 or anti‐4G8 antibodies incubated with 300 μL of the medium not incubated with cells was calculated. […]
molecule,measurement,setting,value
B1,increase in cell viability upon AChE immunodepletion,A549 cells,~ 1.45 fold
same,effect of AChE ID on oligomer versus total Aβ,[1],No change
